Results as given in article PMC11934139.

Molecular target: αCRP scFv-His6 (LA13-IIE3)
Assay: BLI; αCRP scFv (2 μg/mL) immobilised on Octet Ni-NTA biosensors; CRP at 250, 125, 62.5, 15.6 and 7.8 nM; HBS Kinetics Buffer (1% heat-inactivated BSA, 0.2% Tween 20, 10 mM HEPES pH 7.4, 150 mM NaCl), 30 °C; two-state reaction model

B1: human C-reactive protein (natural protein)
chain: QTDMSRKAFVFPKESDTSYVSLKAPLTKPLKAFTVCLHFYTELSSTRGYSIFSYATKRQDNEILIFWSKDIGYSFTVGGSEILFEVPEVTVAPVHICTSWESASGIVEFWVDGKPRVRKSLKKGYTVGAEASIILGQEQDSFGGNFEGSQSLVGDIGNVNMWDFVLSPDEINTIYLGGPFSPNVLNWRALKYEVQGEVFTKPQLWP
- Kd: 588 nM
